In this assay the target is Runx2. Nature of the assay: cell-based or functional assay.

In turn, “Rorβ E28A/G29A double-point mutant in the DBD, C-terminal FLAG (receptor)” yielded a suppression of Runx2 activation of the p6OSE2-Luc reporter construct of 96%. With “Rorβ ΔAD (deletion of the activation domain), C-terminal FLAG (receptor)”, the suppression of Runx2 activation of the p6OSE2-Luc reporter construct was found to be 75%. Turning to “Rorβ ΔHinge (deletion of the Hinge domain), C-terminal FLAG (receptor)”, the suppression of Runx2 activation of the p6OSE2-Luc reporter construct was 28%.

“Rorβ ΔLBD (deletion of the ligand binding domain), C-terminal FLAG (receptor)” came in with a suppression of Runx2 activation of the p6OSE2-Luc reporter construct of 88%. “retinoic acid receptor-related orphan receptor beta (Rorβ), wild-type, with C-terminal FLAG epitope” displayed a suppression of Runx2 activation of the p6OSE2-Luc reporter construct of 91%.

(Values after patent publication US20140017260A1.)
